Patent US8247195

Target: H-NS (Salmonella enterica serovar Typhimurium 14028s) (UniProt A0A0F6B244)
Conditions: ChIP/Q-PCR, formaldehyde crosslinked, anti-HA; value given as example of copies recovered per marA copy

Chain of UniProt A0A0F6B244 (A0A0F6B244 whole entry): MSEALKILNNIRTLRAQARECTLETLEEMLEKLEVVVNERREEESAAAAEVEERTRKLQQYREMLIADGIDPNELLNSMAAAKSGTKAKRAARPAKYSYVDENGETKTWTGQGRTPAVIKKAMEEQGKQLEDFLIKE

proV showed a binding signal (fold enrichment vs marA) of 53.6.
